Assays:
[1] = target: T1, cynomolgus monkey FcγRIII-GST (cynomolgus monkey, UniProt Q8SPW2 17-208); test: ELISA, cynomolgus monkey FcγRIII-GST coated at 4 µg/ml, antibody titrated, HRP-Protein L detection
T1 construct: GST fusion form made in Expi293F cells, purified on glutathione resin; not shown: GST fusion partner
Method: Specifically, 50 μl of mouse FcγRIV-GST and cynomolgus monkey FcγRIII-GST diluted to 4 μg/ml in 0.05 M Na₂CO₃ pH 9.6 were immobilized on a flat bottom polystyrene high bind 96-well plate (Costar, 3590) for 16 hours at 4° C., respectively, and then blocked with 100 μl of 4% skim milk (GenomicBase, SKI400) at room temperature for 2 hours. […] After washing, antibody reaction was performed for 1 hour at room temperature, and then washed using 50 μl of HRP-Protein L (GenScript, M00098). 50 μl of a 1-Step Ultra TMB-ELISA substrate solution (Thermo Fisher Scientific, 34028) was added to develop color, and then added with 50 μl each of 2 M H₂SO₄ to terminate the reaction. Absorbance was measured using an Epoch microplate spectrophotometer (BioTek).

FcγRIIIa-158F-GST = target: T2, FcγRIIIa-158F-GST (human, UniProt P08637 17-208); test: ELISA, FcγRIIIa-158F-GST coated at 4 µg/ml, antibody titrated, HRP-Protein L detection
T2 construct: not shown: GST (glutathione S-transferase) fusion partner
T2 sequence (P08637 17-208): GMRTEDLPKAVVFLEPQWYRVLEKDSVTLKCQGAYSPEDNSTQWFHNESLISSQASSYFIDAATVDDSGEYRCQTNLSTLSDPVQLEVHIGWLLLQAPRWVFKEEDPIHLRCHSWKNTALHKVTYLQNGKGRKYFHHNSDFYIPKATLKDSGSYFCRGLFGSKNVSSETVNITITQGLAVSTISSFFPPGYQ
Method: After washing, antibody reaction was performed for 1 hour at room temperature, and then washed using 50 μl of HRP-Protein L (GenScript, M00098). 50 μl of a 1-Step Ultra TMB-ELISA substrate solution (Thermo Fisher Scientific, 34028) was added to develop color, and then added with 50 μl each of 2 M H₂SO₄ to terminate the reaction. Absorbance was measured using an Epoch microplate spectrophotometer (BioTek).

T1 sequence (Q8SPW2 17-208): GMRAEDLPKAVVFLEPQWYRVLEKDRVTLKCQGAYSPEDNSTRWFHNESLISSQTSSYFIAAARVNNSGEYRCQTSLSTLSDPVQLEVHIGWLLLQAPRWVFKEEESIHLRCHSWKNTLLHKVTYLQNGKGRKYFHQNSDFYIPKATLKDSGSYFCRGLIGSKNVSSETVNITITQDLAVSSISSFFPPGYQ

B1: rituximab Fc variant RTX-PS101 (antibody, human IgG1, kappa)
heavy: QVQLQQPGAELVKPGASVKMSCKASGYTFTSYNMHWVKQTPGRGLEWIGAIYPGNGDTSYNQKFKGKATLTADKSSSTAYMQLSSLTSEDSAVYYCARSTYYGGDWYFNVWGAGTTVTVSAASTKGPSVFPLAPSSKSTSGGTAALGCLVKDYFPEPVTVSWNSGALTSGVHTFPAVLQSSGLYSLSSVVTVPSSSLGTQTYICNVNHKPSNTKVDKKAEPKSCDKTHTCPPCPAPELLGGPSVFLLPPKIKDTLMISRTPEVTCVVVDVSHEDPEVKFNWYVDGVEVHNAKTKPPEEQYNSTLRVVSILTVLHQDWLNGKEYKCKVSNKALPLPEEKTISKQKGQPREPQVYTLPPSRDELTKNQVSLTCLVKGFYPSDIAVEWESNGQQENNYKTTPPVLDSDGSFFLYSKLTVDKSRWQQGNVFSCSVMHEALHNHYTQKSLSLSPGK
light: QIVLSQSPAILSASPGEKVTMTCRASSSVSYIHWFQQKPGSSPKPWIYATSNLASGVPVRFSGSGSGTSYSLTISRVEAEDAATYYCQQWTSNPPTFGGGTKLEIKRTVAAPSVFIFPPSDEQLKSGTASVVCLLNNFYPREAKVQWKVDNALQSGNSQESVTEQDSKDSTYSLSSTLTLSKADYEKHKVYACEVTHQGLSSPVTKSFNRGEC
- EC50 (read off the curve) [1]: ~3 nM
- EC50 (read off the curve) (FcγRIIIa-158F-GST): ~3 nM

B2: rituximab Fc variant RTX-PS102 (antibody)
heavy: QVQLQQPGAELVKPGASVKMSCKASGYTFTSYNMHWVKQTPGRGLEWIGAIYPGNGDTSYNQKFKGKATLTADKSSSTAYMQLSSLTSEDSAVYYCARSTYYGGDWYFNVWGAGTTVTVSAASTKGPSVFPLAPSSKSTSGGTAALGCLVKDYFPEPVTVSWNSGALTSGVHTFPAVLQSSGLYSLSSVVTVPSSSLGTQTYICNVNHKPSNTKVDKKAEPKSCDKTRTCPPCPAPELLGGPSVFLLPPKIKDTLMISRTPEVTCVVVDVSHEDPEVKFNWYVDGVEVHNAKTKPPEEQYNSTLRVISILTVLHQDWLNGKEYKCKVSNKALPLPEEKTISKQKGQPREPQVYTLPPSRDELTKNQVSLTCLVKGFYPSDIAVEWESNGQQENNYKTTPPVLDSDGSFFLYSKLTVDKSRWQQGNVFSCSVMHEALHNHYTQKSLSLSPGK
light: QIVLSQSPAILSASPGEKVTMTCRASSSVSYIHWFQQKPGSSPKPWIYATSNLASGVPVRFSGSGSGTSYSLTISRVEAEDAATYYCQQWTSNPPTFGGGTKLEIKRTVAAPSVFIFPPSDEQLKSGTASVVCLLNNFYPREAKVQWKVDNALQSGNSQESVTEQDSKDSTYSLSSTLTLSKADYEKHKVYACEVTHQGLSSPVTKSFNRGEC
- EC50 (read off the curve) [1]: ~3 nM

B3: rituximab Fc variant RTX-PS107 (antibody, human IgG1, kappa)
heavy: QVQLQQPGAELVKPGASVKMSCKASGYTFTSYNMHWVKQTPGRGLEWIGAIYPGNGDTSYNQKFKGKATLTADKSSSTAYMQLSSLTSEDSAVYYCARSTYYGGDWYFNVWGAGTTVTVSAASTKGPSVFPLAPSSKSTSGGTAALGCLVKDYFPEPVTVSWNSGALTSGVHTFPAVLQSSGLYSLSSVVTVPSSSLGTQTYICNVNHKPSNTKVDKKAEPKSCDKTHTCPPCPAPELLGGPSVFLLPPKIKDTLMISRTPEVTCVVVDVSHEDPEVKFNWYVDGVEVHNAKTKPPEEQYNSTLRVVSILTVLHQDWLNGKEYKCKVSNKALPLPEEKTISKQKGQPREPQVYTLPPSRGELTKNQVSLTCLVKGFYPSDIAVEWESNGQQENNYKTTPPVLDSDGSFFLYSKLTVDKSRWQQGNVFSCSVMHEALHNHYTQKSLSLSPGK
light: QIVLSQSPAILSASPGEKVTMTCRASSSVSYIHWFQQKPGSSPKPWIYATSNLASGVPVRFSGSGSGTSYSLTISRVEAEDAATYYCQQWTSNPPTFGGGTKLEIKRTVAAPSVFIFPPSDEQLKSGTASVVCLLNNFYPREAKVQWKVDNALQSGNSQESVTEQDSKDSTYSLSSTLTLSKADYEKHKVYACEVTHQGLSSPVTKSFNRGEC
- EC50 (read off the curve) [1]: ~3 nM
- EC50 (read off the curve) (FcγRIIIa-158F-GST): ~3 nM

Source: US20250188185A1 (KOREA UNIVERSITY RESEARCH AND BUSINESS FOUNDATION, published 2025)
